{
  "source": "paper doi:10.1101/2025.06.27.661974",
  "about": "(bioRxiv, 2025)",
  "proteins": {"B1": {"name": "Flag-UBE2O-TwinStrep (recombinant Homo sapiens UBE2O, purified) (enzyme, human, UniProt Q9C0C9 1-1292, looked up)", "chain": "MADPAAPTPAAPAPAQAPAPAPEAVPAPAAAPVPAPAPASDSASGPSSDSGPEAGSQRLLFSHDLVSGRYRGSVHFGLVRLIHGEDSDSEGEEEGRGSSGCSEAGGAGHEEGRASPLRRGYVRVQWYPEGVKQHVKETKLKLEDRSVVPRDVVRHMRSTDSQCGTVIDVNIDCAVKLIGTNCIIYPVNSKDLQHIWPFMYGDYIAYDCWLGKVYDLKNQIILKLSNGARCSMNTEDGAKLYDVCPHVSDSGLFFDDSYGFYPGQVLIGPAKIFSSVQWLSGVKPVLSTKSKFRVVVEEVQVVELKVTWITKSFCPGGTDSVSPPPSVITQENLGRVKRLGCFDHAQRQLGERCLYVFPAKVEPAKIAWECPEKNCAQGEGSMAKKVKRLLKKQVVRIMSCSPDTQCSRDHSMEDPDKKGESKTKSEAESASPEETPDGSASPVEMQDEGAEEPHEAGEQLPPFLLKEGRDDRLHSAEQDADDEAADDTDDTSSVTSSASSTTSSQSGSGTSRKKSIPLSIKNLKRKHKRKKNKITRDFKPGDRVAVEVVTTMTSADVMWQDGSVECNIRSNDLFPVHHLDNNEFCPGDFVVDKRVQSCPDPAVYGVVQSGDHIGRTCMVKWFKLRPSGDDVELIGEEEDVSVYDIADHPDFRFRTTDIVIRIGNTEDGAPHKEDEPSVGQVARVDVSSKVEVVWADNSKTIILPQHLYNIESEIEESDYDSVEGSTSGASSDEWEDDSDSWETDNGLVEDEHPKIEEPPIPPLEQPVAPEDKGVVISEEAATAAVQGAVAMAAPMAGLMEKAGKDGPPKSFRELKEAIKILESLKNMTVEQLLTGSPTSPTVEPEKPTREKKFLDDIKKLQENLKKTLDNVAIVEEEKMEAVPDVERKEDKPEGQSPVKAEWPSETPVLCQQCGGKPGVTFTSAKGEVFSVLEFAPSNHSFKKIEFQPPEAKKFFSTVRKEMALLATSLPEGIMVKTFEDRMDLFSALIKGPTRTPYEDGLYLFDIQLPNIYPAVPPHFCYLSQCSGRLNPNLYDNGKVCVSLLGTWIGKGTERWTSKSSLLQVLISIQGLILVNEPYYNEAGFDSDRGLQEGYENSRCYNEMALIRVVQSMTQLVRRPPEVFEQEIRQHFSTGGWRLVNRIESWLETHALLEKAQALPNGVPKASSSPEPPAVAELSDSGQQEPEDGGPAPGEASQGSDSEGGAQGLASASRDHTDQTSETAPDASVPPSVKPKKRRKSYRSFLPEKSGYPDIGFPLFPLSKGFIKSIRGVLTQFRAALLEAGMPECTEDK"}},
  "biological_target": "the molecule itself",
  "assay": "SEC-MALS",
  "data": [
    {"protein": "B1", "values": [
      {"measurement": "stoichiometry N", "value": 2}
    ]}
  ]
}
